Measurements as given in the nanobody polyreactivity screen of Harvey et al. (2022).

experiment: yeast display, Sf9 membrane polyspecificity reagent, FACS + sequencing; frameworks hold sequencing errors
How it was run: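 After 36–48 hours of galactose induction, yeast (Saccharomyces cerevisiae BJ5465) displaying a synthetic nanobody library were stained at 4 °C for 1 hour with 10% biotinylated, detergent-solubilized Sf9 membrane reagent. Streptavidin microbeads enriched the stained cells before FACS sorting into low and high (top ~1%) gates on anti-HA and streptavidin fluorescence. Each clone's polyreactivity label reflects its gate of origin.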

Sequence	polyreactivity (PSR sort gate)
QVQLVESGGGLVQAGGSLRLSCAASGRTFVFYAMGWYRPAPGKERELVADITWSDGNTYYADSVKGRFTISRDNAKNSVYLQMKSLKPEDTAVYYCAKVRTGQSRSVGYDYWGQGTQVTGSS	low polyreactivity
QDQLVESGGGIVQAGGSLRLICAASGRIFLRNDMGWYRQAPGKQRELVAGISSDGSTYYADSVKGRFTISRDNAKNTVYLQMNSLKPEDTAVYYCADERWGNPTDYQFWRQYDYWGQGTQVTVSS	low polyreactivity
QVQLVESGGGLVQAGGSLRLSCAASGSIFYRYAMGWSRQAPGKERELVAAISSGSSTHYADSVKGRFTMSRDNAKNTVYLQMNSLKPEDTAVYYCAARYRAYTSTRRFDYWGQGTQVTVSS	high polyreactivity
QVQLVESGGGLVQAGGSLRLSCAASGRTFERNAMGWYRPAPGKERELVAAITWSGVSTYYADSVKGRFTISRDNAKNTVYLQMNSLKPEDTAVYYCAADWDWRFHRMNYWGQGTQVTVSS	low polyreactivity
QVQLVESGGGLVQAGGSLRLSCAASGFIFGWNAMGWYRQAPGKEREFVAAITSSGTSTYYADSVKGRFTISRDNAKNTVYLQMNSLKPEDTAVYYCAADVIFNWLAYSTEYDYWGQGTQVTVSS	low polyreactivity
QDQLVESGGGLVQAGGSLRLSCAASGSIFSYYAMGWYRQAAGKERELVAAINDGGGSTYYADSVKGRFTISRDNAKNTVYLQMNSLKPEDTAVYYCAAEWSWGPYRYDYWGQGTQVTVSS	high polyreactivity
QVQLVESGGGLVQAGGSLRLSCAASGFTNAYYAMGWYRQAPGKEREFVASITSGGSTYYADSVKGRFTISRDNAKNTVYLQMNSLKPEDTAVYYCAARSPFYSYTPGYEYWGQGTQVTVSS	high polyreactivity
QVQLVESGGGLVQAGGSLRLSCAASGSIIVRYAMGWYRQAPGKERELVAAISWSGGRTYYADSVKGRFTISRDNAKNTVYLQMNSLKPEDTAVYYCAADSSVRYRDTEDYWGQGTQVTVSS	low polyreactivity
QVQLVESGGGLVQAGGSLRLSCAASGNTFVGNAMGWYRQAPGKERELVAVITWSGGSTYYADSVKGRFTISRDNAKNTVYLQMNSLKPEDTAVYYCAARKFGTSVTHRGYWGQGTQVTVSS	low polyreactivity
QVQLVESGGGLFQAGGSLRLSCAASGFTFYGYAMAWYRHAPGKERELVAAITFRGDRTYYADSVKGRFTISRDNAKNTVYLQINSLKPEDTAVYYCAAVRPSGWYSYLSLYIVRRGYWGQGTQVTVSS	low polyreactivity
QVQLVESGGGLVQAGGSLRLSCAASGRTFQTYAMGWYRQAPGTERELVAAISSDGSTYYADSVKGRFTISRDNATNTVYFQMHSLKPEDTAVYYRNTAIGDKYDYHVRVDYEYWGQGTQVTLSS	low polyreactivity
QVQLQESVGSLVQAGGSLRLSCAASGSISILQYMGWYRQAHGKELELVAGINWGATTYYADSVKGRLTTSRDYAKKTVYLQMNSLKPEDTAVYYCAVPTFYSYPVLYWGQGTQVTVSS	low polyreactivity
QVQLVESGGGLVQAGGSLRLSCAASGYTFKAYAMGWNIQAPGKERELVAAISWSGARTYYAYSVKGRFTISRDNAKNTVYLEMNRLKPEYTAVYYCAASNAVYAGRSYRDEYWGQGTQVTVSS	high polyreactivity
QVQLVESGGGLVQAGGSLRLICAASGSIFHVNSMGWYRQAPGKERELVAGISDGGSTYYADSVKGRFTISRDNAKNTVYLQMNSLKPEDTAVSYCAAESEQWYSYVLSYDWEYDYWGQGTHVTVSS	low polyreactivity
QVQLVESGGGLVQAGGSLRLSCAASGRTFLTNAMGWYRQAPGKERELVAAIRWSGTSTYYADSVKGRFTISRDNAKNTVYLQMNSLKPEDTAVYYCAARKVYGSKYGYWGQGTQVTVSS	high polyreactivity
QVQLVESGGGLVQAGGSLRLSCAASGIIFIRYAMGWYRQAPGKERELVAAISWRGGSTYYADSVKGRFTISRDNAKNTVYFQMNSLKPEDTAVYYCAAGYFSYRRYDYWGEGTQVTVSS	high polyreactivity
QVQLVESGGGLVQAGGSLRLSCAASGSIFHVNAMGWYRQAPGKERELVAGISDGGSTYYADSVKGRFTISRDNAKNTVYLQMNSLKPEDTAVSYCAAESEQWYSYVLSYVWEYDYWGQGTHVTVSS	low polyreactivity
QVQLVESGGGLVQAGGSLRLSCAASGIIQPRYAMGWYRQAPGKERELVAAISRGGGTYYADSVKGRFTISRDNAKNTVYLQMNSLIPEYSAVYNCASAYVFVGSSHYYWGQGTQVTVSS	high polyreactivity
QDQLVKSGGGLVQAGGSLRLSCAASGSTFTRNAMGWYRQAHGKERELVAAITLRGGRTYYADSVNGRFTISRDNAKNTVYLHMNSLKPEDTAVYYCAAKPYSAYSYYEQRGRKYDYWGQGTQVTVSS	low polyreactivity
QVQLVESGGGLVQAGGSLRLSCAASGRIVKRNAMGWYRHAPGKERELVAAISYSGGSTYYADSVKGRFTISRDNAKNTVYLEMMSLKPEDTAVYYCAVDRYPTGITKYDYWGQGTQVTVSS	high polyreactivity
QVQLVESGGGLVQAGGSLRLSCAASGITFQYYTMGWYRQAPGKERELVAAISWSTSSTYYADSVKGRFTISRDNAKNTVYLQMNSLKPEDTAVYYCAARYTTRRYYYWGQGTQVTVSS	high polyreactivity
QVQLVESGGGLVQAGGSLRLSCAASGSTFTVNGMGWYRQAPGKERELVASITWSGGSTYYADSVKGRFTISRDNAKNTVYLQMNSLNPEDTAVYYCAADEKLYITGYDYWVQGTQVTVSS	low polyreactivity
QVQLVESCGGIVQAGGSLRLICAASGRIFDSNAMGWYRQSPGKETELVAAITTSGGSTFYADSVKVRFTISRDNAMNTVYLQMISLKPEDTAVYYCAAGYSFYYHAIFPFDYWGQGNQVTVSS	high polyreactivity
QDQLVESGGGLVQAGGSLRLSCAASGIIFDDNTMGWYRQAPGKERELVAAISSSGGSTYYADSVKGRFTISRDNAKNTVYLQMNSLKPEDTAVYYCAAAVYYTYPYIVYRNYPEFDYRGQGTQVTVSS	low polyreactivity
QVQIVESGGGLVQAGGSLRLSCAASGRIRSYAMGWYRQAPGKERELVAAISSRGGSTYYADSVKGRFTISRDNAKNTVYLLMNSLKPEDTAVYYCAKGGYCGQGTQVTVSS	high polyreactivity
QVQLVESGGGLVQAGGSLRLSCAASGITFFDYAMGWYIQAPGKERELVAAIDLSDGRTYYADSVKGRFTISRDNAKNTVYLQMNSLKPEDTAVYYCARQHEDYVYYWYYWYDYDYWGQGTQVTVSS	low polyreactivity
QVQLVESGGGLVQAGGSLRLSCAASGSIFAYYAMGWYRQAPGKERELVARITYSTDGTYYADSVKGRFTISRDNAKNTVYLQMNSLKPEDTAVYYCAVDTWWGFKRYKFDYWGQGTQVTVSS	low polyreactivity
QVQLEESGGGLVQAGGSLRLSCAASGRIFTGYAMGWYRQAPGKERELVAAIRGSGTSTYYADSVKGRFTISRDNAKNTVYLQMNSLKPEDTAVFYCAADWYTSRGWDWYDYWGQGTQVTVSS	high polyreactivity
QVQLVESGGGLVQAGGSLRLSCAASGSTFGYYTMGWYRQAPGKERELVAAISWSGGRTYYADSVKGRFTISRDNAKNTVYLQMNSLKPEDTAVYYCAAPRYGGWRSYQKYDYWGQGTQVTVSS	high polyreactivity
QVQLVESGGGLVQAGGSLRLSCAASGFTFSLYAMGWYRQAPGKERELVAAISRSGGSTYYADSVKGRFTISRDNAKKTVYLQMNSLKPEDTAVYYCNAPYSVSSIRYDYWGQGTQVTVSS	high polyreactivity
